Experimental data from US20190255093A1.

Tests used:
[1] = molecular target: murine proMyostatin (mouse) (UniProt O08689); assay: method not stated
[2] = molecular target: latent myostatin in serum and muscle of mice (mouse) (UniProt O08689); assay: cell-based or functional assay

Kd [1] | latent myostatin signal in muscle (fluorescent western blot, normalized to total protein, compared to WT mice) [2] | Substance
8.35 nM |  | SRK-015 (antibody)
2.57 nM |  | muSRK-015 (antibody)
2.88 nM | 3 fold | muSRK-015P (antibody)
